Laboratory results: publication PMC7048804

Assays:
[1] = target: XPF–ERCC1 mutant 323–326Δ^XPF (human) (UniProt Q92889)
[2] = target: XPF–ERCC1 complex (human) (UniProt Q92889)
ERCC1 (human) = ERCC1 (human) (UniProt P07992)
Chain of UniProt P07992 (P07992 other isoform, or with tags, fused parts or gaps): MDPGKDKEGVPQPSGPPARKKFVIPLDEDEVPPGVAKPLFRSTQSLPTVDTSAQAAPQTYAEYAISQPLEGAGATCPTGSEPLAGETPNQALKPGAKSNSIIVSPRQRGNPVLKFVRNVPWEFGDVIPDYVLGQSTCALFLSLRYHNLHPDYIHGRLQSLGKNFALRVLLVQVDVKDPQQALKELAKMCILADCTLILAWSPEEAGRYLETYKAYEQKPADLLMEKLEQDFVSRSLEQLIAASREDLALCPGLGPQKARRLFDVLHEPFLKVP

Binder	catalytic efficiency kcat/Km of XPF(323–326 Δ)–ERCC1–SLX4^NTD on a stem–loop DNA substrate, real-time fluorescence incision assay [1] [M⁻¹ s⁻¹]	catalytic efficiency kcat/Km of XPF–ERCC1–SLX4^NTD on a stem–loop DNA substrate, real-time fluorescence incision assay (XPF–ERCC1 alone: 1.73) [2] [M⁻¹ s⁻¹]	catalytic efficiency kcat/Km of XPF(S312A)–ERCC1 on a stem–loop DNA substrate, real-time fluorescence incision assay (wild type: 1.73) (ERCC1 (human)) [M⁻¹ s⁻¹]
SLX4^NTD (residues 1–758) (domain or fragment) MKLSVNEAQLGFYLGSLSHLSACPGIDPRSSEDQPESLKTGQMMDESDEDFKELCASFFQRVKKHGIKEVSGERKTQKAASNGTQIRSKLKRTKQTATKTKTLQGPAEKKPPSGSQAPRTKKQRVTKWQASEPAHSVNGEGGVLASAPDPPVLRETAQNTQTGNQQEPSPNLSREKTRENVPNSDSQPPPSCLTTAVPSPSKPRTAQLVLQRMQQFKRADPERLRHASEECSLEAAREENVPKDPQEEMMAGNVYGLGPPAPESDAAVALTLQQEFARVGASAHDDSLEEKGLFFCQICQKNLSAMNVTRREQHVNRCLDEAEKTLRPSVPQIPECPICGKPFLTLKSRTSHLKQCAVKMEVGPQLLLQAVRLQTAQPEGSSSPPMFSFSDHSRGLKRRGPTSKKEPRKRRKVDEAPSEDLLVAMALSRSEMEPGAAVPALRLESAFSERIRPEAENKSRKKKPPVSPPLLLVQDSETTGRQIEDRVALLLSEEVELSSTPPLPASRILKEGWERAGQCPPPPERKQSFLWEGSALTGAWAMEDFYTARLVPPLVPQRPAQGLMQEPVPPLVPPEHSELSERRSPALHGTPTAGCGSRGPSPSASQREHQALQDLVDLAREGLSASPWPGSGGLAGSEGTAGLDVVPGGLPLTGFVVPSQDKHPDRGGRTLLSLGLLVADFGAMVNNPHLSDVQFQTDSGEVLYAHKFVLYARCPLLIQYVNNEGFSAVEDGVLTQRVLLGDVSTEAARTFLHYLYTA	5e+06	1.73e+08	–
XPF S312A (enzyme) MESGQPARRIAMAPLLEYERQLVLELLDTDGLVVCARGLGADRLLYHFLQLHCHPACLVLVLNTQPAEEEYFINQLKIEGVEHLPRRVTNEITSNSRYEVYTQGGVIFATSRILVVDFLTDRIPSDLITGILVYRAHRIIESCQEAFILRLFRQKNKRGFIKAFTDNAVAFDTGFCHVERVMRNLFVRKLYLWPRFHVAVNSFLEQHKPEVVEIHVSMTPTMLAIQTAILDILNACLKELKCHNPSLEVEDLSLENAIGKPFDKTIRHYLDPLWHQLGAKTKSLVQDLKILRTLLQYLSQYDCVTFLNLLEALRATEKAFGQNSGWLFLDSSTSMFINARARVYHLPDAKMSKKEKISEKMEIKEGEETKKELVLESNPKWEALTEVLKEIEAENKESEALGGPGQVLICASDDRTCSQLRDYITLGAEAFLLRLYRKTFEKDSKAEEVWMKFRKEDSSKRIRKSHKRPKDPQNKERASTKERTLKKKKRKLTLTQMVGKPEELEEEGDVEEGYRREISSSPESCPEEIKHEEFDVNLSSDAAFGILKEPLTIIHPLLGCSDPYALTRVLHEVEPRYVVLYDAELTFVRQLEIYRASRPGKPLRVYFLIYGGSTEEQRYLTALRKEKEAFEKLIREKASMVVPEEREGRDETNLDLVRGTASADVSTDTRKAGGQEQNGTQQSIVVDMREFRSELPSLIHRRGIDIEPVTLEVGDYILTPEMCVERKSISDLIGSLNNGRLYSQCISMSRYYKRPVLLIEFDPSKPFSLTSRGALFQEISSNDISSKLTLLTLHFPRLRILWCPSPHATAELFEELKQSKPQPDAATALAITADSETLPESEKYNPGPQDFLLKMPGVNAKNCRSLMHHVKNIAELAALSQDELTSILGNAANAKQLYDFIHTSFAEVVSKGKGKK	–	–	4.42e+07
